# Results from article PMC2367712 (Nucleic Acids Research, 2008).
# B1: Lsr2 of M. tuberculosis, recombinant, His-tagged at the C-terminal (natural protein)
# chain: not shown
# Biological target: the molecule itself
# Test: cross-linking
protein,measurement,value
B1,stoichiometry N,2
